These results are taken from the supplement of paper PMC9170038.

The subject of the series is MS2 coat protein. Nature of the series: apparent KD of MS2 coat protein; designed switch direction (-1 OFF switch, 1 ON switch): 1; higher = weaker reporter binding. In outline:
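Apparent KD, taken as the median over clusters for each design, was obtained by curve-fitting normalised cluster fluorescence. Designed RNA switches had been transcribed on Illumina chips by stalled E. coli RNA polymerase and titrated with SNAP-549-labelled MS2 coat protein, doubling from 0.7 or 1.5 nM to 3 µM.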

The mark [1] stands for this setting: input ligand: microRNA oligo, concentration not stated.
Setting [2] is: Eterna round: R95, input ligand: FMN 200 uM.
The mark [3] stands for this setting: Eterna round: R95, input ligand: microRNA oligo, concentration not stated.
Setting [4] is: Eterna round: R95, input ligand: none.

As for “GUGGUGGGUUGAGGAUAUUGGUUGUCGUUGUCCCACAUGAGGAUCACCCAUGUGGGUUGUGGUUUUGAGAAGGUUGGUUGCUGG [salish99_SSNG2_r04_052] (Eterna round: R96, puzzle: Same State NG 2)”, under setting [1], the “apparent KD of MS2 coat protein” value is 12.9 nM.

With “GUGGUGUAGAUACAGGAUAUGUUGCUCGUAACAUGAGGAUCACCCAUGUAUAUAUGAGAUUAAAUGCAGAAGGGUGCACACCACG [Mat - Same State 2 - Mod of UCT - D76] (puzzle: Same State 2)”, the “apparent KD of MS2 coat protein” value under setting [2] was found to be 24.6 nM, the “apparent KD of MS2 coat protein” value under setting [3] was 18.9 nM and the “apparent KD of MS2 coat protein” value under setting [4] amounted to 13.3 nM.

As for “GUGGUGUAGAUACAGGAUAUGUUGCUCGUAACAUGAGGAUCACCCAUGUAUCUAUGAGAUUAAAUGCAGAAGGGUGCACACCACA [Mat - Same State 2 - Mod of UCT - D72] (puzzle: Same State 2)”, the “apparent KD of MS2 coat protein” value is 24 nM under setting [2], 460 nM under setting [3] and 297 nM under setting [4].

Turning to “GUUAAACAUGAGGAUCACCCAUGUAAUAAUAUGGGAGGAUAUCAGAAAUUAUGUAUUAAAUGAGAAGGCCUAAUUG [Mat - Same State 1 - Mod of Eli - D80] (puzzle: Same State 1)”, the “apparent KD of MS2 coat protein” value came to 125 nM under setting [2], 585 nM under setting [3] and 769 nM under setting [4].

Take “GUUAAACAUGAGGAUCACCCAUGUAAUAAUAUGGGAGGAUAUGCGAAAUUAAUUAAUUAAGCAGAAGGCCUAAUUG [Mat - Same State 1 - D98] (puzzle: Same State 1)”: the “apparent KD of MS2 coat protein” value runs as follows: under setting [2], 38.3 nM; under setting [3], 148 nM; under setting [4], 217 nM.

Consider “GUUAAACAUGAGGAUCACCCAUGUCAAUGUAGUCGAGGAUAUGGGCAGCUAUGAGGCGUACUAGAAGGCGAAGAGG [Mat - Same State 1 - Mod of JL - D11] (puzzle: Same State 1)”, for which the “apparent KD of MS2 coat protein” value by setting is: under setting [2], 121 nM; under setting [3], 236 nM; under setting [4], 334 nM.

“GUUAAACAUGAGGAUCACCCAUGUCAAUGUAGUCGAGGAUAUGGGCAGCUGUGAGGCGUACUAGAAGGCGAAAAGG [Mat - Same State 1 - Mod of JL - D10] (puzzle: Same State 1)”: under setting [3], the “apparent KD of MS2 coat protein” value was found to be 266 nM.

For “GUUACAUGAGGAUCACCCAUGUAUGUGUGGGAGUAAGUGUCUUAGGAUAUCUAGUAAUUAAUUUAAGAGAAGGAAGAUUGUUGU [JMF's solution 54] (Eterna round: R96, puzzle: Same State NG 3)”, the “apparent KD of MS2 coat protein” value worked out at 133 nM (input ligand: FMN 200 uM), 93.5 nM under setting [1] and 134 nM (input ligand: none).

As for “GUUACAUGAGGAUCACCCAUGUAUGUGUGGGAGUAAGUGUCUUAGGAUAUCUAUCAAUUAAUUUAAGAGAAGGAAGAUUGUUGU [JMF's solution 89] (Eterna round: R96, puzzle: Same State NG 3)”, the “apparent KD of MS2 coat protein” value is 116 nM (input ligand: FMN 200 uM), 94 nM under setting [1] and 110 nM (input ligand: none).

For “GUUACAUGAGGAUCACCCAUGUAUGUGUGGGAGUAAGUGUCUUAGGAUAUCUAUCAUUUAAAUUAAGAGAAGGAAGAUUGUUGU [JMF's solution 12] (Eterna round: R96, puzzle: Same State NG 3)”, the “apparent KD of MS2 coat protein” value worked out at 126 nM (input ligand: FMN 200 uM), 73.5 nM under setting [1] and 118 nM (input ligand: none).

Consider “GUUACAUGAGGAUCACCCAUGUAUGUGUGGGAGUAAGUGUCUUAGGAUAUCUAUGAUUUAAUUCAAGAGAAGGAAGAUUGUUGU [JMF's solution 85] (Eterna round: R96, puzzle: Same State NG 3)”, for which the “apparent KD of MS2 coat protein” value (input ligand: FMN 200 uM) came to 115 nM, the “apparent KD of MS2 coat protein” value under setting [1] turned out to be 70.7 nM and the “apparent KD of MS2 coat protein” value (input ligand: none) was 79.5 nM.

With “GUUACAUGAGGAUCACCCAUGUAUGUGUGGGAGUAAGUGUCUUAGGAUAUCUGUUAUUGAAUUUAAGAGAAGGAAGAUUGUUGU [JMF's solution 37] (Eterna round: R96, puzzle: Same State NG 3)”, the “apparent KD of MS2 coat protein” value reads like this: (input ligand: FMN 200 uM) 102 nM; under setting [1], 59.5 nM; (input ligand: none) 100 nM.

Take “GUUAGGAAUCUAGCAAACAUGAGGAUCACCCAUGUUAGUGGGAAGGAUAUGGUACAGAAACUGUACCAGAAGGUCUUAUUGAUU [Omei SS(NG) 3 AV4] (Eterna round: R96, puzzle: Same State NG 3)”: the “apparent KD of MS2 coat protein” value was determined as 40.2 nM (input ligand: FMN 200 uM), 33 nM under setting [1] and 59 nM (input ligand: none).

As to “GUUAGGAAUCUAGCAUACAUGAGGAUCACCCAUGUAAGUGGGAAGGAUAUGGUACAGAAACUGUACCAGAAGGUCUUAUUGAUU [Omei SS(NG) 3 AV6] (Eterna round: R96, puzzle: Same State NG 3)”, the “apparent KD of MS2 coat protein” value is, setting by setting: (input ligand: FMN 200 uM) 45.1 nM; under setting [1], 40.8 nM; (input ligand: none) 80.1 nM.

“GUUAUACAUGAGGAUCACCCAUGUCAAUGUAGUCGAGGAUAUGGGUAGCCAUGAGGCGUACUAGAAGGCGAGGAGU [JL-ss1-3.19 ViennaUCT mod] (puzzle: Same State 1)”: the “apparent KD of MS2 coat protein” value was 130 nM under setting [2], 68.8 nM under setting [3] and 81.5 nM under setting [4].

For the sequence “GUUCGUUUGAUAGGAUAUCGCUAUACAUGAGGAUCACCCAUGUUUACCACGCUGGUUUUUCGUACCGAGAAGGAUUCUGAUGAU [JL JR sub007 mod 2] (Eterna round: R96, puzzle: Same State NG 2)”, under setting [1], the “apparent KD of MS2 coat protein” value was 30.5 nM.

With “UAAAGAAAGCGAGGAUAUAGCCCAUGUGAAGAACUAGAAGGCGCAGACAUGAGGAUCACCCAUGUGUUCAUGAGGAGGAGGACA [Kawasakiqro] (Eterna round: R96, puzzle: Same State NG 1)”, the “apparent KD of MS2 coat protein” value by setting is: (input ligand: FMN 200 uM) 88.6 nM; under setting [1], 51.9 nM; (input ligand: none) 57.7 nM.

As for “UAAAGCGACGUAGGAUAUCCUCUACAUGCGUAAGGAGAAGGAUGCGCAACAUGAGGAUCACCCAUGUAAAACCAGCACUGCUGG [Isaerte] (Eterna round: R96, puzzle: Same State NG 1)”, the “apparent KD of MS2 coat protein” value reads like this: (input ligand: FMN 200 uM) 71.9 nM; under setting [1], 22.5 nM; (input ligand: none) 36.7 nM.

In the case of “UAAAUAAAGUAAGGAUAUACAUGAGGAUUUCUCGUAGAAGGUACAAGACAUGAGGAUCACCCAUGUAUCGCUCCGUAGAGCGUA [Mat - Same State NG 1 - JL mod - D21] (Eterna round: R96, puzzle: Same State NG 1)”, the “apparent KD of MS2 coat protein” value under setting [1] is 57.7 nM.

With “UAAGAACAUGAGGAUCACCCAUGUGGAAAGAACACAGGAUAUCAUAGUAGAACGAGACUAUGAGAAGGGUGACACG [Texeistean] (puzzle: Same State 1)”, the “apparent KD of MS2 coat protein” value stood at 595 nM under setting [2], 214 nM under setting [3] and 666 nM under setting [4].

Regarding “UAAUUAAAGCAAGGAUAUCACGUCGUUUAGACGUGAGAAGGUGCUCCUUACAUGAGGAUCACCCAUGUAUAACAUGAAUAAUUA [SSNG1/10-B3] (Eterna round: R96, puzzle: Same State NG 1)”, the “apparent KD of MS2 coat protein” value is 170 nM (input ligand: FMN 200 uM), 517 nM under setting [1] and 656 nM (input ligand: none).

As to “UAAUUAAGUCAAGGAUAUCACGUCGAUUAGACGUGAGAAGGUGACCAAUACAUGAGGAUCACCCAUGUAAUACAUGAAUAAUUA [SSNG1/12-B2] (Eterna round: R96, puzzle: Same State NG 1)”, the “apparent KD of MS2 coat protein” value reads like this: (input ligand: FMN 200 uM) 22.7 nM; under setting [1], 53.2 nM; (input ligand: none) 56.4 nM.

Consider “UACAAUCUAUCUGAGGAUAUCAUGAUGAUAACAUGAGGAUCACCCAUGUGCAGGAAAACUGCAUAUGAGAAGGCAGAUAGAUUGU [salish99_ss2_r3_074] (puzzle: Same State 2)”, for which the “apparent KD of MS2 coat protein” value is, setting by setting: under setting [2], 102 nM; under setting [3], 195 nM; under setting [4], 92.4 nM.

In the case of “UACAAUCUAUCUGAGGAUAUCAUGAUUUAAACAUGAGGAUCACCCAUGUGCAGGAAAACUGCAUAUGAGAAGGCAGAUAGAUUGU [salish99_ss2_r3_063] (puzzle: Same State 2)”, the “apparent KD of MS2 coat protein” value under setting [2] was found to be 135 nM, the “apparent KD of MS2 coat protein” value under setting [3] worked out at 297 nM and the “apparent KD of MS2 coat protein” value under setting [4] was found to be 241 nM.

Consider “UACUAUCUAUCUCAGGAUAUCAUGUCAAAGACAUGAGGAUCACCCAUGUACCAGGAAACUGGUUAUGAGAAGGGAGAUAGAUAGU [Mat - Same State 2 - Mod - D40] (puzzle: Same State 2)”, for which the “apparent KD of MS2 coat protein” value was determined as 160 nM under setting [2], 53.2 nM under setting [3] and 249 nM under setting [4].

In the case of “UAGAAACAUGAGGAUCACCCAUGUGGGUUAAACACAGGAUAUCAUGCCACACGAUAGGUAUGAGAAGGGUGACCGU [Sodion] (puzzle: Same State 1)”, the “apparent KD of MS2 coat protein” value reads like this: under setting [2], 234 nM; under setting [3], 79.5 nM; under setting [4], 53.3 nM.

Consider “UAGAGAGGAAGCGAGGAUAUCGUGGGAGGAACAUGAGGAUCACCCAUGUGUGAUGUUGAGAGGGACGAGAAGGCGCGGGAAAGUA [JR_SS2_Sub079] (puzzle: Same State 2)”, for which the “apparent KD of MS2 coat protein” value stood at 171 nM under setting [2], 194 nM under setting [3] and 277 nM under setting [4].

Consider “UAGCGCUGUCGAGAGGAUAUGCGGUGAUGGACAUGAGGAUCACCCAUGUUAGCGAUAGCAUUACGGUAGAAGGCUCUACAGCUGC [salish99_ss2_r3_092] (puzzle: Same State 2)”, for which the “apparent KD of MS2 coat protein” value under setting [3] is 23.2 nM.
